Experimental data: patent publication US12018084B2, “Anti-CXCR2 antibodies and uses thereof” (Cephalon LLC, priority 2018, dated 2024)
Values joined by “and” are separate entries in the source; they are usually repeats but may differ in a detail not shown here. Equal entries are not always repeated.

Key:
[1] = test system: native cynomolgus CXCR2 expressed by cynomolgus neutrophils; test: Flow cytometry binding to cynomolgus blood neutrophils; parameters: species or system cynomolgus monkey; conditions: FIG. 2, MFI
Chain of native cynomolgus CXCR2 expressed by cynomolgus neutrophils (as listed by the source): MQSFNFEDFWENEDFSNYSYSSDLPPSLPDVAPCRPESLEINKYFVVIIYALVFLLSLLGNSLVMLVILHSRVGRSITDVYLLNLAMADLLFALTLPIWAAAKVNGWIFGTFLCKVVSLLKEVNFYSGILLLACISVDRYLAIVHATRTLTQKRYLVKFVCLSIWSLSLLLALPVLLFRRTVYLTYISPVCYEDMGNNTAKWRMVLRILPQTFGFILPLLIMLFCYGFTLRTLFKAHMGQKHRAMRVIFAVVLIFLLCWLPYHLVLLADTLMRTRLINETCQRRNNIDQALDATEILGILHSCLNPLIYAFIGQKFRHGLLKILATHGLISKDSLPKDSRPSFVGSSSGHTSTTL
Description: Whole human buffy coat, PBMC enriched fractions prepared from human peripheral blood buffy coat or cynomolgus monkey whole blood was used for analysis of antibody binding activity by flow cytometry. Briefly, blood was untreated or diluted 1:1 in sterile filtered room temperature phosphate-buffered saline (PBS). 30 mL samples were layered over 15 mL Lymphoprep™ (Stem Cell Technologies, cat #07851). Peripheral blood mononuclear cells (PBMC) were enriched by room temperature centrifugation at 700 g for 30 minutes with no braking. The PBMC layer was isolated and cells washed in PBS containing 2 mM EDTA with low speed centrifugation at 200 g, to remove platelet contamination. Whole blood or PBMC enriched cell fractions were resuspended in red blood cell lysing solution (BioLegend, 420301). Viable cell counts were determined and cells resuspended at 1×10^7 cells per mL in FACS buffer (1×PBS+0.5% (w/v) BSA+2 mM EDTA pH 7.2).
Flow cytometry binding assays using whole blood or PBMC enriched preparations: Binding assays to detect CXCR2 on blood neutrophil populations using test antibodies were performed essentially as described for assays using transiently transfected Expi293F™ cells. Binding of antibodies to human CXCR2 on the surface of the neutrophils was measured using anti-CXCR2 antibody directly conjugated to the fluorophore allophycocyanin (APC). Matched isotype control antibodies were included for comparison. Cells were incubated with lineage specific antibodies and 2 μg/ml of APC conjugated anti-CXCR2 antibody or isotype control prepared in ice cold 3% BSA/PBS for a minimum of 30 minutes at 4° C. The commercial anti-CXCR2 antibody (clone 48331 (R&D Systems FAB331A)) was used as a positive control. […] The level of fluorescence on the cell surface was measured by flow cytometry. Using this method, test anti-CXCR2 antibodies were detected binding neutrophils from both human and cynomolgus monkey.

[2] = target: T1, Human CXCR2 (Homo sapiens, UniProt P25025); test: cELISA of hybridoma supernatants on cells transfected with human CXCR2; assay type: binding; parameters: host or cells: Expi293F cells, vector pTT5; conditions: hybridoma supernatant; fluorescence units relative to positive control (100%)
T1 sequence (P25025 1-360): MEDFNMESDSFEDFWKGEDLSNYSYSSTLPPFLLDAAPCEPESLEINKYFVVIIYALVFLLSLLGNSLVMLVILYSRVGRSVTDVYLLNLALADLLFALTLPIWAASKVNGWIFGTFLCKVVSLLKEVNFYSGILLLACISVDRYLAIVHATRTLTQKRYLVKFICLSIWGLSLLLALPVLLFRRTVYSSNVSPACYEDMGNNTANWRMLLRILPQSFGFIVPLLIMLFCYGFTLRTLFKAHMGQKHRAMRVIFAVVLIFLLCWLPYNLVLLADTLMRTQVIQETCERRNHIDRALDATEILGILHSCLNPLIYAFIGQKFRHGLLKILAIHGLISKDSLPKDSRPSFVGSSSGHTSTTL
Description: To generate hybridomas which produced monoclonal antibodies to human CXCR2, splenocytes and/or lymph node cells from animals with the highest anti-CXCR2 titres were isolated and fused to mouse myeloma cells (ATCC, CRL-1580). Cells were plated at approximately 1×10^5 cells/mL in flat bottom microtiter plates, followed by a two week incubation in selective medium (10% FCS and 1×HAT (Sigma)). Hybridomas were expanded by serial passage through four media changes in 96-well plates (96-well stages 1 to 4), then, where required, expanded into T25 and T75 flasks. […] Bound antibodies were detected using a goat anti-rat IgG-HRP (Southern Biotech, #3030-05) secondary antibody.
A panel of hybridomas was generated using lymph nodes and spleen cells from the transgenic rats engineered to express human variable region sequences. A cellular ELISA (cELISA) was used to detect human CXCR2 binding activity in supernatants taken during the expansion process for the hybridomas (Table 5). Hybridomas that retained expression of antibodies that bound CXCR2 after several passages were selected for DNA sequencing.

[3] = target: T1, Human CXCR2; test: Flow cytometry binding assay, Expi293F cells transiently transfected with human CXCR2; parameters: host or cells: Expi293F cells, vector pTT5
Description: For each 10 mL transfection, lipid-DNA complexes were prepared by diluting 10 μg of plasmid DNA in Opti-MEM™ I Reduced Serum Medium (Cat. no. 31985-062) to a total volume of 1.0 mL. 54 μL of ExpiFectamine™ 293 Reagent was diluted in Opti-MEM™ I medium to a total volume of 1.0 mL. Transfections were carried out according to manufacturer's instructions. The cells were incubated in a 37° C. incubator with a humidified atmosphere of 8% CO2 in air on an orbital shaker rotating at 200 rpm. Approximately 18-24 hours post-transfection, the cell viability was evaluated and transfected cells harvested for use.
Harvested cells were resuspended in FACS buffer (1×PBS+0.5% (w/v) bovine serum albumin (BSA)+2 mM EDTA pH 7.2). Approximately 2×10^5 cells were added per well in a 96-well round-bottomed plate. Cells were pelleted by centrifugation at 400 g for 5 mins at 4° C. and supernatants discarded. 25 μL of each test antibody or control antibody was added to the cells and incubated for 30 minutes at 4° C. Cells were washed twice in 100 μL FACS buffer followed by centrifugation at 400 g for 5 mins at 4° C.
For detection, 50 μL of secondary antibody (Table 2) was added to relevant samples. Commercially available antibodies that bound to transfected CXCR family members were used as positive controls to ensure that the cells were expressing the receptors. Cells were washed twice in 200 μL of FACS buffer followed by centrifugation at 400 g for 5 mins at 4° C. Before sample acquisition, cells were resuspended in 100 μL of FACS buffer. Samples were acquired using the high throughput sampler on a FACSCanto™ II cytometer (Beckton-Dickinson).
Binding of BKO-4A8 and variants thereof was detected by incubation of fluorochrome-conjugate anti-human IgG light chain lambda antibody. The binding activity of antibodies tested, quantified as mean fluorescent intensity, was independent of the antibody Fc region as illustrated in FIG. 9.

Human CXCR2 % Positive [2]: 110%
Max binding (MFI) ([3]; combinatorial variants with light chain c, listed as 4A8 Control): 62074 MFI and 82797 MFI
EC50 ([3]; combinatorial variants, Table 11): 0.4 nM
B1: BKO-4A8: parental anti-CXCR2 antibody, VH SEQ ID NO: 17, VL SEQ ID NO: 18 (antibody, V domains shown)
VH: EVQLLESGGGLVQPGGSLRLSCAASGFTFSSSTMSWVRQAPGKGLEWVSAISGRGRNTYYADSVKGRFTISRDNSRNTLYLQMNSLRAEDTAVYYCAIQMGYWGQGILVTVSS
VL: QSALTQPPSASGSPGQSVTISCIGTSSDVGGYNYVSWYQQHPDKAPKLMIYEVNKRPSGVPDRFSGSKSGNTASLTVSGLQAEDEADYYCSSYAGNNNFGVFGGGTKLTVL
modifications: BKO_4A8_VH; BKO_4A8_VL
binding to native cynomolgus CXCR2 on cynomolgus PBMCs / neutrophils [1]: high binding activity
